The record followed here is article PMC6555819, “Comprehensive study of nuclear receptor DNA binding provides a revised framework for understanding receptor specificity”.

Sequences and labels used below:
B1: NRC3_wobSeed29_DR1_C8G_o1 (dsDNA)
DNA 1: GCGCTTAGGGGTCAAAGGTTATAGCATGAATAGAATGCGATTGACAGCGTAGAATGAAGG
DNA 2: CCTTCATTCTACGCTGTCAATCGCATTCTATTCATGCTATAACCTTTGACCCCTAAGCGC
B2: NRC3_wobSeed114_DR4_A8G_o1 (dsDNA)
DNA 1: GCAATACGGGGTCATCGTAGGCCAGAGTACGCACAGGCGATTGACAGCGTAGAATGAAGG
DNA 2: CCTTCATTCTACGCTGTCAATCGCCTGTGCGTACTCTGGCCTACGATGACCCCGTATTGC
B3: NRC3_wobSeed18_DR0_A8G_o1 (dsDNA)
DNA 1: GCGATACGGGGTCAAGGCCAGAGTACGCGTATTGATGCGATTGACAGCGTAGAATGAAGG
DNA 2: CCTTCATTCTACGCTGTCAATCGCATCAATACGCGTACTCTGGCCTTGACCCCGTATCGC
B4: NRC3_wobSeed53_DR2_T21C_o1 (dsDNA)
DNA 1: GCCCTTACGGGTCACGAGGTCATAGCACGACGAGCGGCGATTGACAGCGTAGAATGAAGG
DNA 2: CCTTCATTCTACGCTGTCAATCGCCGCTCGTCGTGCTATGACCTCGTGACCCGTAAGGGC
B5: NRC3_wobSeed26_DR1_A23G_o1 (dsDNA)
DNA 1: GCTCTAGTTGGTCAAAGGTCACGCACTCGAAATGCGGCGATTGACAGCGTAGAATGAAGG
DNA 2: CCTTCATTCTACGCTGTCAATCGCCGCATTTCGAGTGCGTGACCTTTGACCAACTAGAGC
B6: NRC3_wobSeed29_DR1_C8A_o1 (dsDNA)
DNA 1: B1 DNA 1 with G8A
DNA 2: B1 DNA 2 with C53T
B7: NRC3_random_hg19_33_o1 (dsDNA)
DNA 1: GCATCTGCATAGAGCTAGAGCTATTGATTCAAAGAGGCGATTGACAGCGTAGAATGAAGG
DNA 2: CCTTCATTCTACGCTGTCAATCGCCTCTTTGAATCAATAGCTCTAGCTCTATGCAGATGC
B8: NRC3_wobSeed123_DR5_A12T_o1 (dsDNA)
DNA 1: GCCCTCGGAGGTCAACAGGAGGTCAGAGCTGCCAGAGCGATTGACAGCGTAGAATGAAGG
DNA 2: CCTTCATTCTACGCTGTCAATCGCTCTGGCAGCTCTGACCTCCTGTTGACCTCCGAGGGC
B9: NRC3_wobSeed89_DR3_G16A_o1 (dsDNA)
DNA 1: GCCTATGTAGGTTAAAGGGGTCATTCAGTTTGAAAGGCGATTGACAGCGTAGAATGAAGG
DNA 2: CCTTCATTCTACGCTGTCAATCGCCTTTCAAACTGAATGACCCCTTTAACCTACATAGGC
B10: NRC3_wobSeed85_DR3_G15T_o1 (dsDNA)
DNA 1: GCCGTCCAAGGTCATAGAGGTCAGTGAATGCCGAGTGCGATTGACAGCGTAGAATGAAGG
DNA 2: CCTTCATTCTACGCTGTCAATCGCACTCGGCATTCACTGACCTCTATGACCTTGGACGGC
B11: NRC3_wobSeed97_DR4_C7A_o1 (dsDNA)
DNA 1: GCCAAAATAGGTCACGAAAGGTCAAAGTCGAATGACGCGATTGACAGCGTAGAATGAAGG
DNA 2: CCTTCATTCTACGCTGTCAATCGCGTCATTCGACTTTGACCTTTCGTGACCTATTTTGGC
B12: NRC3_wobSeed41_DR1_A15G_o1 (dsDNA)
DNA 1: GCATATGTAGGTTAGGGGTCATTCAGGTTGGTTCGCGCGATTGACAGCGTAGAATGAAGG
DNA 2: CCTTCATTCTACGCTGTCAATCGCGCGAACCAACCTGAATGACCCCTAACCTACATATGC
B13: NRC3_wobSeed109_DR4_C7T_o1 (dsDNA)
DNA 1: GCCGTCTAAGGTCATAGGAGGTCAGTGAAGACAGATGCGATTGACAGCGTAGAATGAAGG
DNA 2: CCTTCATTCTACGCTGTCAATCGCATCTGTCTTCACTGACCTCCTATGACCTTAGACGGC
B14: NRC3_random_hg19_25_o1 (dsDNA)
DNA 1: GCGAGCCACCACGCCTGGCCTCTCCGATCTCCAACTGCGATTGACAGCGTAGAATGAAGG
DNA 2: CCTTCATTCTACGCTGTCAATCGCAGTTGGAGATCGGAGAGGCCAGGCGTGGTGGCTCGC
B15: NRC3_random_hg19_391_o1 (dsDNA)
DNA 1: GCTAGATATGAGTCTGGCTTGCTGCTATCTACTTCAGCGATTGACAGCGTAGAATGAAGG
DNA 2: CCTTCATTCTACGCTGTCAATCGCTGAAGTAGATAGCAGCAAGCCAGACTCATATCTAGC

Where a chain is given by its changes, count along the chain named.

RARa:RXRa, sequence (P10276 whole entry, chain 1 of 2): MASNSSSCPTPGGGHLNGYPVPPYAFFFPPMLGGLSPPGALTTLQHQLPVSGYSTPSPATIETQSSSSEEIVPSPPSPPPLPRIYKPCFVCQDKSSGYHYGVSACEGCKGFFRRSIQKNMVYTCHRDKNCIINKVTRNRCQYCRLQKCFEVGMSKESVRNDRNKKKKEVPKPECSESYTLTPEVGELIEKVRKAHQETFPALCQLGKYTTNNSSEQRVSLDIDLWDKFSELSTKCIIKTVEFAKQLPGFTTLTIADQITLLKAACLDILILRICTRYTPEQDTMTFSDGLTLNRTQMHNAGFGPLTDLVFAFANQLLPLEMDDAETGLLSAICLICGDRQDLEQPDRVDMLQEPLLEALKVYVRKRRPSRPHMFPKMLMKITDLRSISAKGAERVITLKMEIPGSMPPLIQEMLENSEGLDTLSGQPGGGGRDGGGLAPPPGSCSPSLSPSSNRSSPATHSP
RARa:RXRa, sequence (P19793 whole entry, chain 2 of 2): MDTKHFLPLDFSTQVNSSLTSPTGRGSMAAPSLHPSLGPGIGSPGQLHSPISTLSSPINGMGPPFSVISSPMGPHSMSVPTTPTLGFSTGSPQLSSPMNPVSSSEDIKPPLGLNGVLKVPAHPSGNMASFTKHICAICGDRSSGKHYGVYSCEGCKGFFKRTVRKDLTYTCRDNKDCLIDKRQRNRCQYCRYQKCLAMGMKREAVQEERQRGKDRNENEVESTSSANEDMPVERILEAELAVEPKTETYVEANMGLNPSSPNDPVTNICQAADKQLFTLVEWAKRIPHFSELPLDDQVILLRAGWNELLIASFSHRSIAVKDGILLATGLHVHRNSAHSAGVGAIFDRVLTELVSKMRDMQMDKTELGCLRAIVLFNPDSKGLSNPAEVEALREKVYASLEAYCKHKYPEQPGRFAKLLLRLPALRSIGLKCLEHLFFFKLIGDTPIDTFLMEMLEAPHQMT
RARb:RXRa, sequence (P10826 whole entry, chain 1 of 2): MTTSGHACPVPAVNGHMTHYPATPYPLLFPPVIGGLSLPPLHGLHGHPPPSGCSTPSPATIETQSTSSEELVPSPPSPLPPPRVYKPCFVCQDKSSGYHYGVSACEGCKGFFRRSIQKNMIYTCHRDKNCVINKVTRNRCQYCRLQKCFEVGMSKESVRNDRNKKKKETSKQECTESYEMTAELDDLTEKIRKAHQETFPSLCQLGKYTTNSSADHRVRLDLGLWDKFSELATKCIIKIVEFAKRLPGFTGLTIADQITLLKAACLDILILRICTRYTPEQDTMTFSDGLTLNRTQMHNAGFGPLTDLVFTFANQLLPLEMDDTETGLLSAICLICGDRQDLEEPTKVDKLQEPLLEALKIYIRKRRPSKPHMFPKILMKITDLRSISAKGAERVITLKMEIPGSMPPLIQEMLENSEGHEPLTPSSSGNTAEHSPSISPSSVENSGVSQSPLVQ
RARb:RXRa, sequence (P19793 whole entry, chain 2 of 2): as the sequence (P19793 whole entry, chain 2 of 2) above
LXRa:RXRa, sequence (Q13133 whole entry, chain 1 of 2): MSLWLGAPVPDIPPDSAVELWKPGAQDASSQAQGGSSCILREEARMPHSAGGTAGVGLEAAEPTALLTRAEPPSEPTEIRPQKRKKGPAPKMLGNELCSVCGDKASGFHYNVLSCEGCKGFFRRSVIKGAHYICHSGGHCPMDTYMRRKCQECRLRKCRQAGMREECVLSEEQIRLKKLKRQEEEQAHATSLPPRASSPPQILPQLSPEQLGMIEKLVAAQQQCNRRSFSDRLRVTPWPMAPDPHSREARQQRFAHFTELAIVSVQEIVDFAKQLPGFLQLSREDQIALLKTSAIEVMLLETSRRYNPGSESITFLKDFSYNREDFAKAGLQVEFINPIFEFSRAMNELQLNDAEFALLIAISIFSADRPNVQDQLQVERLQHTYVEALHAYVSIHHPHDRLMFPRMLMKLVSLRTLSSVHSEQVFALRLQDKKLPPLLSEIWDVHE
LXRa:RXRa, sequence (P19793 whole entry, chain 2 of 2): as the sequence (P19793 whole entry, chain 2 of 2) above
FXR:RXRa, sequence (Q96RI1 whole entry, chain 1 of 2): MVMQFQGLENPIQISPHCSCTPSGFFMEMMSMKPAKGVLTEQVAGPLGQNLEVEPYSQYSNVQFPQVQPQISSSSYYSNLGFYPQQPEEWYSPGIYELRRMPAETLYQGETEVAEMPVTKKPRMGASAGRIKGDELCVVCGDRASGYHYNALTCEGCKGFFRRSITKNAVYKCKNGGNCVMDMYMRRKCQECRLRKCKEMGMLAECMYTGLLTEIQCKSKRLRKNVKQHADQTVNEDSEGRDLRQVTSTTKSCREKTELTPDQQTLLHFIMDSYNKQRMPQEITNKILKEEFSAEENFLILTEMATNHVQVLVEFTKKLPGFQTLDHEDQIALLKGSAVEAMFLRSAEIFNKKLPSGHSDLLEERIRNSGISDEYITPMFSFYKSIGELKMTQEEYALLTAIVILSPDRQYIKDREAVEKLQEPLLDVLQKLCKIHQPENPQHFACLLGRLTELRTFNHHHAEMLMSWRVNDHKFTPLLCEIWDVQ
FXR:RXRa, sequence (P19793 whole entry, chain 2 of 2): as the sequence (P19793 whole entry, chain 2 of 2) above

The target of one series is RXRa (Homo sapiens, UniProt P19793). In words: no ligand; PBM; 180 nM; PBS pH 7.4, 2% milk, 0.02% Triton X-100, 1 mM DTT, BSA, 0.4 mg/ml salmon testes DNA. The note with it: tags: His cleaved; chain copies: 2; label: surface-attached array probe.
RXRa, sequence (P19793 whole entry): as the sequence (P19793 whole entry, chain 2 of 2) above
Regarding B1, the binding signal was 10.6 PBM z-score against 500 random probes.

With B2, the binding signal was 9.29 PBM z-score against 500 random probes.

For B3, the binding signal is 8.69 PBM z-score against 500 random probes.

B4: the binding signal was 8.57 PBM z-score against 500 random probes.

The next series addresses RARb:RXRa (Homo sapiens, UniProt P10826;P19793 full;full). The experiment in a line: no ligand; PBM; 270 nM : 90 nM RXRa; PBS pH 7.4, 2% milk, 0.02% Triton X-100, 1 mM DTT, BSA, 0.4 mg/ml salmon testes DNA. The note with it: tags: His kept;His cleaved; copies: 1;1; label: surface-attached array probe. The procedure, abridged: (§1)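 Antibodies against each partner of ligand-free nuclear receptor dimers (one per run) detected binding on custom Agilent 4×180K protein-binding microarrays after 1 h incubation. The double-stranded probes had 34-nt variable regions carrying direct-repeat seeds, single-nucleotide variants, half-site ablations and random human genomic background sequences. Binding z-scores, from regression-normalized fluorescence, use the random background probes as reference.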
For the molecule B5, the binding signal is 5.6 PBM z-score against 500 random probes.

With B1, the binding signal was 5.84 PBM z-score against 500 random probes.

Turning to B6, the binding signal was 5.58 PBM z-score against 500 random probes.

Regarding B7, the binding signal is -1.35 PBM z-score against 500 random probes.

For the molecule B8, the binding signal was 5.85 PBM z-score against 500 random probes.

Another series concerns the target VDR:RXRa (Homo sapiens, UniProt P11473;P19793 full;full). The description is as above. The note with it: tags: His kept;His cleaved; copies: 1;1; label: surface-attached array probe. The procedure, abridged: as §1
Consider B9, for which the binding signal is 8.06 PBM z-score against 500 random probes.

B10: the binding signal was 7.93 PBM z-score against 500 random probes.

For B1, the binding signal is 7.19 PBM z-score against 500 random probes.

Regarding B2, the binding signal was 7.09 PBM z-score against 500 random probes.

Regarding B11, the binding signal was 7.26 PBM z-score against 500 random probes.

As to B12, the binding signal was 6.69 PBM z-score against 500 random probes.

Turning to B4, the binding signal was 6.6 PBM z-score against 500 random probes.

The target of the next series is LXRa:RXRa (Homo sapiens, UniProt Q13133;P19793 full;full). Described as above. The note with it: tags: His kept;His cleaved; copies: 1;1; label: surface-attached array probe. In outline:
as §1
As to B1, the binding signal is 7.36 PBM z-score against 500 random probes.

As for B2, the binding signal was 7.63 PBM z-score against 500 random probes.

As to B8, the binding signal was 6.72 PBM z-score against 500 random probes.

For B13, the binding signal is 8.01 PBM z-score against 500 random probes.

With B14, the binding signal was -0.38 PBM z-score against 500 random probes.

The next series addresses PPARa:RXRa (Homo sapiens, UniProt Q07869;P19793 full;full). Described as above. The note with it: tags: GST kept;His cleaved; copies: 1;1; label: surface-attached array probe. The procedure, abridged:
as §1
Take B1: the binding signal is 7.64 PBM z-score against 500 random probes.

Take B2: the binding signal was 6.87 PBM z-score against 500 random probes.

In the case of B8, the binding signal is 6.94 PBM z-score against 500 random probes.

On to B3, for which the binding signal is 6.56 PBM z-score against 500 random probes.

B4: the binding signal was 6.48 PBM z-score against 500 random probes.

The target of the next series is LXRb:RXRa (Homo sapiens, UniProt P55055;P19793 full;full). The description is as above. The note with it: tags: His kept;His cleaved; copies: 1;1; label: surface-attached array probe. In outline:
as §1
On to B5, for which the binding signal was 6.1 PBM z-score against 500 random probes.

As to B1, the binding signal is 7.75 PBM z-score against 500 random probes.

As to B6, the binding signal was 6.56 PBM z-score against 500 random probes.

Regarding B2, the binding signal was 6.75 PBM z-score against 500 random probes.

For B11, the binding signal was 7.91 PBM z-score against 500 random probes.

Turning to B15, the binding signal was -0.73 PBM z-score against 500 random probes.

As to B3, the binding signal was 5.96 PBM z-score against 500 random probes.

Regarding B12, the binding signal was 5.79 PBM z-score against 500 random probes.

Consider B14, for which the binding signal was -0.09 PBM z-score against 500 random probes.

The target in a further series is FXR:RXRa (Homo sapiens, UniProt Q96RI1;P19793 full;full). The series is described as above. The settings on record: tags: His kept;His cleaved; copies: 1;1; label: surface-attached array probe. The procedure, abridged:
as §1
Consider B10, for which the binding signal is 7.72 PBM z-score against 500 random probes.

For the molecule B1, the binding signal is 9.03 PBM z-score against 500 random probes.

For the molecule B6, the binding signal is 8.78 PBM z-score against 500 random probes.

In the case of B2, the binding signal is 8.6 PBM z-score against 500 random probes.

Consider B11, for which the binding signal was 8.43 PBM z-score against 500 random probes.

For B8, the binding signal was 7.97 PBM z-score against 500 random probes.

Regarding B3, the binding signal is 8.08 PBM z-score against 500 random probes.

With B13, the binding signal was 8.24 PBM z-score against 500 random probes.

Consider B4, for which the binding signal is 8.01 PBM z-score against 500 random probes.

For a further series, the target named is PXR:RXRa (Homo sapiens, UniProt O75469;P19793 full;full). Described as above. The settings on record: tags: His kept;His cleaved; copies: 1;1; label: surface-attached array probe. In outline: as §1
On to B9, for which the binding signal was 6.77 PBM z-score against 500 random probes.

Regarding B10, the binding signal is 6.83 PBM z-score against 500 random probes.

For B5, the binding signal was 6.52 PBM z-score against 500 random probes.

Consider B1, for which the binding signal was 7.35 PBM z-score against 500 random probes.

On to B6, for which the binding signal is 6.86 PBM z-score against 500 random probes.

On to B2, for which the binding signal was 6.64 PBM z-score against 500 random probes.

On to B7, for which the binding signal was -1.09 PBM z-score against 500 random probes.

In the case of B11, the binding signal was 7.78 PBM z-score against 500 random probes.

For B8, the binding signal is 6.48 PBM z-score against 500 random probes.

On to B15, for which the binding signal is -0.47 PBM z-score against 500 random probes.

As for B3, the binding signal is 6.46 PBM z-score against 500 random probes.

In the case of B13, the binding signal was 7.34 PBM z-score against 500 random probes.

B12: the binding signal is 6.45 PBM z-score against 500 random probes.

In the case of B4, the binding signal is 6.58 PBM z-score against 500 random probes.

Take B14: the binding signal is -0.45 PBM z-score against 500 random probes.

Another series concerns the target RARa:RXRa (Homo sapiens, UniProt P10276;P19793 full;full). Described as above. The settings on record: tags: His kept;His cleaved; copies: 1;1; label: surface-attached array probe. In outline:
as §1
B9: the binding signal was 7.03 PBM z-score against 500 random probes.

With B10, the binding signal was 7.13 PBM z-score against 500 random probes.

Consider B5, for which the binding signal is 8.13 PBM z-score against 500 random probes.

Regarding B1, the binding signal was 9.11 PBM z-score against 500 random probes.

For B6, the binding signal is 9.1 PBM z-score against 500 random probes.

Take B2: the binding signal is 7.2 PBM z-score against 500 random probes.

As to B7, the binding signal is -1.05 PBM z-score against 500 random probes.

Regarding B11, the binding signal was 8.32 PBM z-score against 500 random probes.

Regarding B8, the binding signal was 7.44 PBM z-score against 500 random probes.

As to B15, the binding signal was -0.46 PBM z-score against 500 random probes.

Turning to B3, the binding signal is 7.56 PBM z-score against 500 random probes.

Take B13: the binding signal is 7.11 PBM z-score against 500 random probes.

For B12, the binding signal was 7.24 PBM z-score against 500 random probes.

With B4, the binding signal is 8.05 PBM z-score against 500 random probes.

In the case of B14, the binding signal is -0.44 PBM z-score against 500 random probes.

Another series addresses RARg:RXRa (Homo sapiens, UniProt P13631;P19793 full;full). Described as above. The note with it: tags: His kept;His cleaved; copies: 1;1; label: surface-attached array probe. The procedure, abridged: as §1
For B5, the binding signal is 7.77 PBM z-score against 500 random probes.

Take B1: the binding signal is 8.66 PBM z-score against 500 random probes.

Regarding B6, the binding signal was 7.9 PBM z-score against 500 random probes.

For the molecule B2, the binding signal is 7.44 PBM z-score against 500 random probes.

On to B11, for which the binding signal was 8.41 PBM z-score against 500 random probes.

In the case of B8, the binding signal is 8.86 PBM z-score against 500 random probes.

On to B4, for which the binding signal is 7.59 PBM z-score against 500 random probes.
